PMC8249414

Biological target: nucleosome core particle with 167 bp '601' DNA (167NCP)

Substance: ALC1 (1-673) D381A mutant (from UniProt Q86WJ1 1-673) (domain or fragment)
- Km of nucleosome remodeling (enzyme 10-640 nM), against ALC1 (1-673): 2 fold
